Changes are numbered by the printed parent chain.
Tests used:
WRN [1] = molecular target: T1, WRN (human, UniProt Q14191 1-1432); assay: EMSA; ATPgS, 4 mM Mg2+, 10 mM KCl; EMSA: 40 mM Tris-HCl pH 8.0, 4 mM MgCl2, 5 mM DTT, 1 mM ATPgS, 0.1 ug BSA in 10 ul, 4 C, 20 min; +10 mM KCl for quadruplexes; 4% gel, 0.5x Tris-glycine pH 8.3; settings: protein: recombinant, tags: His6, label: 5'-32P
BLM = BLM (UniProt P54132 1-1417); assay: as above; settings: protein: recombinant; tags: C-terminal FLAG; label: 5'-32P; G4 tetramer of 4 parallel strands
Chain of BLM (P54132 whole entry): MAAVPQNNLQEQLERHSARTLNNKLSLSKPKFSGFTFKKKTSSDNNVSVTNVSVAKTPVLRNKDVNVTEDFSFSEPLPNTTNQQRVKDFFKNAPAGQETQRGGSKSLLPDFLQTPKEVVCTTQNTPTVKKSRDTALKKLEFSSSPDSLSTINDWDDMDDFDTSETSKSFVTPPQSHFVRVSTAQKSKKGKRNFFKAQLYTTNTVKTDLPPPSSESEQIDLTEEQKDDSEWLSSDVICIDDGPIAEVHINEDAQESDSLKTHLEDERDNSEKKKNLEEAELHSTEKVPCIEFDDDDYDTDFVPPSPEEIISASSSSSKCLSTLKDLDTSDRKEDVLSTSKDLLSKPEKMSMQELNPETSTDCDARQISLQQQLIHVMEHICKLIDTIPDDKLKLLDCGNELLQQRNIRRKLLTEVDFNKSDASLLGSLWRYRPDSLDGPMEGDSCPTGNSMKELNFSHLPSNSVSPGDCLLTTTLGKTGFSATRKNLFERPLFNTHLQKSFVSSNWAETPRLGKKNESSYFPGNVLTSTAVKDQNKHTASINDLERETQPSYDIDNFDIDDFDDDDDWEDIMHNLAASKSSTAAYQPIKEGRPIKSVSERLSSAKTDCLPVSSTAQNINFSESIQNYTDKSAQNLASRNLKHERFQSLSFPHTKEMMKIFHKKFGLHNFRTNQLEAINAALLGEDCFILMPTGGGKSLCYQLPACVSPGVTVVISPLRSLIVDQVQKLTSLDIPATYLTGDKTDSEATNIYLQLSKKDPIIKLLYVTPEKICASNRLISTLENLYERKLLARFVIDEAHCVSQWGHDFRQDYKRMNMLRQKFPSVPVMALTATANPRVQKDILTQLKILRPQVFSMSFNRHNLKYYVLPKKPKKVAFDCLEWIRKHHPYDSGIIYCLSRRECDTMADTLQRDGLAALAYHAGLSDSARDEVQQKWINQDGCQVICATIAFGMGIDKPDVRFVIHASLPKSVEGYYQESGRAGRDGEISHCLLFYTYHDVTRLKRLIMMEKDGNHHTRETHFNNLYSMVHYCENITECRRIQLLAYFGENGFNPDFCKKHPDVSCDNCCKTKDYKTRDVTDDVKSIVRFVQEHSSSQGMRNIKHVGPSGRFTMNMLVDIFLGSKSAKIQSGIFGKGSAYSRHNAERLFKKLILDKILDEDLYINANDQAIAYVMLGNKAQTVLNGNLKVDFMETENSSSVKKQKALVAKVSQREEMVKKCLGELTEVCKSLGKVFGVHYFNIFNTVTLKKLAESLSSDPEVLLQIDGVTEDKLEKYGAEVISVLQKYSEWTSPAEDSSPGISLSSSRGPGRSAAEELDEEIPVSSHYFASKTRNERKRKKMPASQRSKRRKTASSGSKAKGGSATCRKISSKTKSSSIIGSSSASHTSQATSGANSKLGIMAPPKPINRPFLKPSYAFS

WRN [2] = molecular target: T1, WRN; assay: EMSA; ATPgS, 4 mM Mg2+; EMSA: 40 mM Tris-HCl pH 8.0, 4 mM MgCl2, 5 mM DTT, 1 mM ATPgS, 0.1 ug BSA in 10 ul, 4 C, 20 min; +10 mM KCl for quadruplexes; 4% gel, 0.5x Tris-glycine pH 8.3; settings: protein: recombinant, tags: His6
WRN [3] = molecular target: T1, WRN; assay: EMSA; ATPgS, 10 mM KCl; tight, similar to G'2 TeR43; EMSA: 40 mM Tris-HCl pH 8.0, 4 mM MgCl2, 5 mM DTT, 1 mM ATPgS, 0.1 ug BSA in 10 ul, 4 C, 20 min; +10 mM KCl for quadruplexes; 4% gel, 0.5x Tris-glycine pH 8.3; settings: protein: recombinant; tags: His6; label: 5'-32P; G4 dimer of 2 strands, described as antiparallel
WRN K577M = WRN K577M (human, UniProt Q14191 1-1432, K577M); assay: EMSA; similar to wild type; EMSA: 40 mM Tris-HCl pH 8.0, 4 mM MgCl2, 5 mM DTT, 1 mM ATPgS, 0.1 ug BSA in 10 ul, 4 C, 20 min; +10 mM KCl for quadruplexes; 4% gel, 0.5x Tris-glycine pH 8.3; settings: protein: recombinant; tags: His6; label: 5'-32P; G4 dimer of 2 strands, described as antiparallel
Chain of WRN K577M (Q14191 whole entry K577M): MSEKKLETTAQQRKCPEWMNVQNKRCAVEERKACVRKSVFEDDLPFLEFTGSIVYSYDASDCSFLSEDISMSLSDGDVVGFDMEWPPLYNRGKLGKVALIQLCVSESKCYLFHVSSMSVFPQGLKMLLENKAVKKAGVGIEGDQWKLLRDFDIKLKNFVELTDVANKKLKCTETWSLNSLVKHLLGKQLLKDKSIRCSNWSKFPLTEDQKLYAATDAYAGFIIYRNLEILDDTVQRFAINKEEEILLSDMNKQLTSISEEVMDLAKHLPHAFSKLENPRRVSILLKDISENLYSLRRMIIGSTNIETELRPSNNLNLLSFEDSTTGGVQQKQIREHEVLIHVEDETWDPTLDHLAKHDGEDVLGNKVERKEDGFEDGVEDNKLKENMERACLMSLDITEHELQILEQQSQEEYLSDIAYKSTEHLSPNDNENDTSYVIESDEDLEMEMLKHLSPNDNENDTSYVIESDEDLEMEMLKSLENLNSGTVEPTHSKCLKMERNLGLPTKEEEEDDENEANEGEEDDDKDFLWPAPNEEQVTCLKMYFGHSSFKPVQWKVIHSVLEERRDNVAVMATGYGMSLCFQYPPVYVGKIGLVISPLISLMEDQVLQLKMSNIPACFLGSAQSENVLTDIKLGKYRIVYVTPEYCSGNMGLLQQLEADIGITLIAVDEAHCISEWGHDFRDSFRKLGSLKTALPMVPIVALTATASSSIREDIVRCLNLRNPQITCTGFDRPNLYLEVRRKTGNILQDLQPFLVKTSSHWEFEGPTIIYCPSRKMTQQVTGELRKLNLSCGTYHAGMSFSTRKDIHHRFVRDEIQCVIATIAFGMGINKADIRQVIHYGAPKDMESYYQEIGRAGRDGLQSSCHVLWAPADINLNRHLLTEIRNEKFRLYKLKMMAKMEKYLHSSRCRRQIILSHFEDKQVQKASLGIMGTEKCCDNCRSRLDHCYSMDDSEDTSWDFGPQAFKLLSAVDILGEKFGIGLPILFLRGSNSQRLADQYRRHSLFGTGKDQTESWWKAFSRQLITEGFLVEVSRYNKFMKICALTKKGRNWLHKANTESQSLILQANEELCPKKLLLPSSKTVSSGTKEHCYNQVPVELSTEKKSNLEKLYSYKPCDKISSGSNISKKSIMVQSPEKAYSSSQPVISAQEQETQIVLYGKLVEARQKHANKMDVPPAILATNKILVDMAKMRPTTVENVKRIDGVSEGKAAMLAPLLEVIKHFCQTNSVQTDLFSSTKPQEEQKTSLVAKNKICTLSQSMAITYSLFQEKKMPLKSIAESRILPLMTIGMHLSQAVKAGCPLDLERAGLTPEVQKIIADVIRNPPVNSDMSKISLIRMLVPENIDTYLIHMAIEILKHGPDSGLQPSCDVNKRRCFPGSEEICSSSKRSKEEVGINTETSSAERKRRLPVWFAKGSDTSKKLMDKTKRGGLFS

T1 sequence (Q14191 whole entry): as the sequence (Q14191 whole entry K577M) above, with M577K counted along it

Work on TGGACCAGACCTAGCAGCTATGGGGGAGCTGGGGAAGGTGGGAATGTGA (structured_DNA) [G4 IgG quadruplex] yielded a Kd (WRN [1]; G4 tetramer of 4 parallel strands) of 3.4 ± 0.4 nM and a Kd (BLM) of 7 ± 2.9 nM.

B1: dsTeR63 partial duplex (dsDNA)
DNA 1: GGTTAGGGTTAGGGTTAGGGTTAGGGTTAGTTAGGGTTAGGGTTAGGGTTAGGGGCGATTGAT
DNA 2: ATCAATCGCCCCTAACCC
Binder B1 has a Kd (WRN [2]; label: 5'-32P on strand 2, 18 bp, 45 nt 5' tail on strand 1) of 7.6 ± 2.9 nM.

B2: G'2 TeR63 quadruplex (structured_DNA)
DNA: B1 DNA 1
B2: binds (WRN [3]).

B3: Splayed arm DNA (dsDNA)
DNA 1: CGCGCCGAATTCCCGCTAGCAATATTCTGCAGCCAAGCTTCCGCGC
DNA 2: GGCGAACTGCCATTCGCACTTACACTGCTAGCGGGAATTCGGCGCG
B3 gave a Kd (WRN [2]; label: 5'-32P on strand 1, fork) of 6.2 ± 1.3 nM.

For GGTTAGGGTTAGGGTTAGGGTTAGGGTTAGTTAGGGTTAGGGT (structured_DNA) [G'2 TeR43 quadruplex], the binding result (WRN K577M) was “binds” and the Kd (WRN [1]; G4 dimer of 2 strands, described as antiparallel) was 0.26 ± 0.08 nM.

B4: 20/46 partial duplex (dsDNA)
DNA 1: CGCTAGCAATATTCTGCAGC
DNA 2: GCGCGGAAGCTTGGCTGCAGAATATTGCTAGCGGGAAATCGGCGCG
modifications: 3'-terminal inverted dC on the 20-mer
B4 gave a Kd (WRN [2]; label: 5'-32P on strand 1, 20 bp, 13 nt 5' and 13 nt 3' tails on strand 2) of 2.3 ± 1.3 nM.

B5: Bubble DNA (dsDNA)
DNA 1: B4 DNA 2 with A38T
DNA 2: CGCGCCGAATTCCCGCTAGTGGCGCCTTGCAGCCAAGCTTCCGCGC
Binder B5 has a Kd (WRN [2]; label: 5'-32P on strand 1, blunt, 8 nt non-complementary central bubble) of 24.7 ± 3.5 nM.
